The results in this text go back to patent US20050064384A1 (published 2005).

Test [1] has as its target T1, FLAG-tagged wild type (wt) MST1 (mouse, UniProt Q9JI11 1-487).
T1 construct: also called FLAG-MST1; full-length MST1
T1 sequence: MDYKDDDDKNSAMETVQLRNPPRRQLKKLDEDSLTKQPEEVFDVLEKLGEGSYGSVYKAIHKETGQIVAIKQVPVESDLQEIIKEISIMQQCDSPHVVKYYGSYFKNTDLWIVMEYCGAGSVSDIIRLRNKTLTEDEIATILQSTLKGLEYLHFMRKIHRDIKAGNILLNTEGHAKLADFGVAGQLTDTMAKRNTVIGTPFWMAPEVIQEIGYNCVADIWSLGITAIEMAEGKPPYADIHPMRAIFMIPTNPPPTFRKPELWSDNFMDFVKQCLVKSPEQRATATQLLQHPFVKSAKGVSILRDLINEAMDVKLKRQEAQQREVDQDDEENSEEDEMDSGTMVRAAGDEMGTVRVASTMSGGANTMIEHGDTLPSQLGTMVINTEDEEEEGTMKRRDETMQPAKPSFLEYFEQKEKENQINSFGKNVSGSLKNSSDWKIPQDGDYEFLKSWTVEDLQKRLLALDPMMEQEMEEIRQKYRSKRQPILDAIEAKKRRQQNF
Put plainly: anti-FLAG immunoprecipitation from co-transfected HEK293 cells, FLAG peptide elution, anti-HA immunoblot. On the technique in general: In western blotting, separated proteins are transferred to a membrane and probed.
Description: (§2) FLAG-tagged proteins were immunopreciptated with anti-FLAG M2-agarose, eluted with the excess of the FLAG peptide. The eluates were analyzed by immunoblotting after SDS-PAGE. Upper panel: proteins immunoprecipitated (IP) by FLAG-agarose probed with anti-HA antibody 12CA5 (α-HA). Middle panel: cell extracts probed with anti-FLAG antibody (α-FLAG).

The target of test [2] is T2, FLAG-tagged GCK (human, UniProt Q12851 1-820).
T2 sequence: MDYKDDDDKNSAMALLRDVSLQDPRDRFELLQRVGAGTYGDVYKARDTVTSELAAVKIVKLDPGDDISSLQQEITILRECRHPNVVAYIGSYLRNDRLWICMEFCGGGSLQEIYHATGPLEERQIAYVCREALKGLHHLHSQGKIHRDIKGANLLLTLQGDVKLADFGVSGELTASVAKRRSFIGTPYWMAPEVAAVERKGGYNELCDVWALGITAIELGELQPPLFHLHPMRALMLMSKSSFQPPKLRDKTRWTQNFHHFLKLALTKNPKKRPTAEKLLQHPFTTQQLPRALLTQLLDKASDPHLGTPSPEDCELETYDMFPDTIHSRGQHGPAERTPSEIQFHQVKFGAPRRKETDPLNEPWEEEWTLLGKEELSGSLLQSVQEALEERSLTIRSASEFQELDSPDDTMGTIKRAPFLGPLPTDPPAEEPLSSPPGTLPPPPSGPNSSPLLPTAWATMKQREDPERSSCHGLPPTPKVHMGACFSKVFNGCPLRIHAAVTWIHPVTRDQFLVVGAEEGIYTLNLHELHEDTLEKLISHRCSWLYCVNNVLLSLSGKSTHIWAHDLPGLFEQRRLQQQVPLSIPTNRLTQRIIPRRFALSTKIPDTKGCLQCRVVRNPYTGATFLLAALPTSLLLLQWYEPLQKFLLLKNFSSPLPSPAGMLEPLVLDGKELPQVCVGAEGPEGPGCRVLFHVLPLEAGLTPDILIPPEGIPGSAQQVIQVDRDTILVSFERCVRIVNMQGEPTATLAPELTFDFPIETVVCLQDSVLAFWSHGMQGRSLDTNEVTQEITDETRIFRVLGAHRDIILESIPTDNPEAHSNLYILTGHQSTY
Put plainly: anti-FLAG immunoprecipitation from co-transfected HEK293 cells, anti-HA immunoblot.
Description: as §2

Test [3] has as its target T3, FLAG-tagged SOK (human, UniProt O00506 1-426).
T3 construct: also called SOK1
The test is described as above.
Description: as §2

Test [4] has as its target T4, FLAG-tagged Ha-RasG12V (human, UniProt P01112 1-189).
T4 construct: also called FLAG-V12RAS; FLAG Ha-RasG12V
Description: in vitro binding of FLAG-Ras from HEK293 extracts to GST fusion protein immobilized on GSH-agarose, anti-FLAG immunoblot. The source says: (§1) Aliquots of extracts from these cells (as shown in the center panel) were adsorbed to the immobilized GST proteins; the beads were washed extensively and eluted with SDS.

The target in test [5] is T5, FLAG-tagged Ki-RasG12V (Meleagris gallopavo (Wild turkey), UniProt P79800 1-188).
T5 construct: also called FLAG Ki-RasG12V
Described as above.
Description: as §1

T3 sequence (O00506 other isoform, or with tags, fused parts or gaps limits assumed): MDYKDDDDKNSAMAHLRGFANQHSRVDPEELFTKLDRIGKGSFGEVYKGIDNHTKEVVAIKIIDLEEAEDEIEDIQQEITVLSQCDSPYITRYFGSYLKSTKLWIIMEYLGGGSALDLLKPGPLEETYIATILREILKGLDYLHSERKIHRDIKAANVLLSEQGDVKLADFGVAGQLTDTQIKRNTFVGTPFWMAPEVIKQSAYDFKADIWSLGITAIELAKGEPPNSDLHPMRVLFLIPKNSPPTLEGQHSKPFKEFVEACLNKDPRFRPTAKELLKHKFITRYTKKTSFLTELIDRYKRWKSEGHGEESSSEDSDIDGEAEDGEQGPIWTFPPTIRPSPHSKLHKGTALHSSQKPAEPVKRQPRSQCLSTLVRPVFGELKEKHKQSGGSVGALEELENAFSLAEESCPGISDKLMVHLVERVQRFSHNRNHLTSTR

B1: HA-NORE1 (other)
chain: MYPYDVPDYAMASPAIGQRPYPLLLDPEPPRYLQSLGGTEPPPPARPRRCIPTALIPAAGASEDRGGRRSGRRDPEPTPRDCRHARPVRPGLQPRLRLRPGSHRPRDVRSIFEQPQDPRVLAERGEGHRFVELALRGGPGWCDLCGREVLRQALRCANCKFTCHSECRSLIQLDCRQKGGPALDRRSPGSTLTPTLNQNVCKAVEETQHPPTIQEIKQKIDSYNSREKHCLGMKLSEDGTYTGFIKVHLKLRRPVTVPAGSGPSPSMDAIKEVNPAATTDKRTSFYLPLDAIKQLHISSTTTVSEVIQGLLKKFMVVDNPQKFALFKRIHKDGQVLFQKLSIADYPLYLRLLAGPDTDVLSFVLKENETGEVEWDAFSIPELQNFLTILEKEEQDKIHQLQKKYNKFRQKLEEALRESQGKPG
notes: also called recombinant hemagglutinin (HA)-tagged NORE fusion polypeptide
Take B1: the binding result was “binds” in test [1], “no binding” in test [2] and “no binding” in test [3].

B2: GST-NORE (7-413) (other, not shown: a dimerising Fc or GST)
chain: GQRPYPLLLDPEPPRYLQSLGGTEPPPPARPRRCIPTALIPAAGASEDRGGRRSGRRDPEPTPRDCRHARPVRPGLQPRLRLRPGSHRPRDVRSIFEQPQDPRVLAERGEGHRFVELALRGGPGWCDLCGREVLRQALRCANCKFTCHSECRSLIQLDCRQKGGPALDRRSPGSTLTPTLNQNVCKAVEETQHPPTIQEIKQKIDSYNSREKHCLGMKLSEDGTYTGFIKVHLKLRRPVTVPAGSGPSPSMDAIKEVNPAATTDKRTSFYLPLDAIKQLHISSTTTVSEVIQGLLKKFMVVDNPQKFALFKRIHKDGQVLFQKLSIADYPLYLRLLAGPDTDVLSFVLKENETGEVEWDAFSIPELQNFLTILEKEEQDKIHQLQKKYNKFRQKLEEALRESQGKPG
In the case of B2, the binding result in test [4] and in test [5] was “binds” throughout.
